Reference: patent publication US20260098059A1 (ENDOMET BIOSCIENCES, published 2026)
“And” between values parts separate entries of the source, which are not always exact repeats. Equal entries are not always repeated. Blank lines part the entries; values can stand above or below the binder they belong to. Where no end group is shown, it is not given here. [ ]: non-standard residue; d: D form. αMeW = C[C@](N)(Cc1c[nH]c2ccccc12)C(=O)O; αMeF = C[C@](N)(Cc1ccccc1)C(=O)O; 2Pal = N[C@@H](Cc1ccccn1)C(=O)O; αMeS = C[C@](N)(CO)C(=O)O

Assays:
β-catenin [1] = molecular target: T1, β-catenin (UniProt P35222 134-665, limits assumed, biotinylated in the SPR and plate assays); experiment: competitive FP
T1 construct: also called beta catenin; biotinylated β-catenin
T1 sequence (looked up): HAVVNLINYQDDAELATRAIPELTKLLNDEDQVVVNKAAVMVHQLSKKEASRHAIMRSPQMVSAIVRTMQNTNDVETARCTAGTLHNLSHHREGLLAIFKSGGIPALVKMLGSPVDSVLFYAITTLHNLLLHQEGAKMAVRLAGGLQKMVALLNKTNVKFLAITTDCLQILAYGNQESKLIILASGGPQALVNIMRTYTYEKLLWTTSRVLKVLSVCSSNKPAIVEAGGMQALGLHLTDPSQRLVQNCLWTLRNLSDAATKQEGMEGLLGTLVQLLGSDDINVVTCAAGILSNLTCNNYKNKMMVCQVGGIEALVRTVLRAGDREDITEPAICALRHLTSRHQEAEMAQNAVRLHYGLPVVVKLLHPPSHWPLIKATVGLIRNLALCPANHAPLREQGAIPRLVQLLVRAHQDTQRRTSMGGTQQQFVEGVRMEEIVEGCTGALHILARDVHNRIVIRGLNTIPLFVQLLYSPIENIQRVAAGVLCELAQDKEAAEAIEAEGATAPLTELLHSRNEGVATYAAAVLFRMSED
Procedure, shortened: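 Competitive fluorescence polarization with inhibitor peptide serially diluted from 10 nM to 30 uM; polarization read at 470 nm excitation, 520 nm emission. Experiments performed three times.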

β-catenin [2] = molecular target: T1, β-catenin; experiment: cell-based or functional assay

Kd (β-catenin [1]): ≤ 0.4 µM
Wnt Reporter EC50 (β-catenin [2]): > 22.5 µM and ≤ 30 µM
Binder: H-KMWILISFWG-OH [SEQ ID NO: 122]

Kd (β-catenin [1]): ≤ 0.4 µM
Wnt Reporter EC50 (β-catenin [2]): ≤ 7.5 µM
Binder: H-HMWILISFWG-OH [SEQ ID NO: 123]

Kd (β-catenin [1]): > 0.4 µM and ≤ 1 µM
Wnt Reporter EC50 (β-catenin [2]): > 30 µM
B1: SEQ ID NO: 186 (peptide)
peptide: KMWFLICFWE
HELM: PEPTIDE1{[ac].K.M.W.F.L.I.C.F.W.E}$PEPTIDE1,PEPTIDE1,2:R3-11:R3$$$V2.0
SMILES: CC[C@H](C)[C@@H]1NC(=O)[C@H](CC(C)C)NC(=O)[C@H](Cc2ccccc2)NC(=O)[C@H](Cc2c[nH]c3ccccc23)NC(=O)[C@H](CCSC)NC(=O)[C@@H](NC(C)=O)CCCCNC(=O)CC[C@@H](C(=O)O)NC(=O)[C@H](Cc2c[nH]c3ccccc23)NC(=O)[C@H](Cc2ccccc2)NC(=O)[C@H](CS)NC1=O

Kd (β-catenin [1]): ≤ 0.4 µM
Wnt Reporter EC50 (β-catenin [2]): ≤ 7.5 µM
Binder: H-MWFLICFWG-OH [SEQ ID NO: 42]

Kd (β-catenin [1]): > 0.4 µM and ≤ 1 µM
Wnt Reporter EC50 (β-catenin [2]): > 7.5 µM and ≤ 15 µM
Binder: H-MWILIS[αMeF]WG-OH [SEQ ID NO: 128]

Kd (β-catenin [1]): ≤ 0.4 µM
Wnt Reporter EC50 (β-catenin [2]): > 7.5 µM and ≤ 15 µM
Binder: H-M[αMeW]ILICFWG-OH [SEQ ID NO: 132]

Kd (β-catenin [1]): > 0.4 µM and ≤ 1 µM
Wnt Reporter EC50 (β-catenin [2]): > 30 µM
Binder: H-MWILI[αMeS]FWG-OH [SEQ ID NO: 136]

Kd (β-catenin [1]): > 0.4 µM and ≤ 1 µM
Wnt Reporter EC50 (β-catenin [2]): ≤ 7.5 µM
B2: SEQ ID NO: 164 (peptide)
peptide: LWFLICFWG
HELM: PEPTIDE1{[Nle].W.F.L.I.C.F.W.G}$$$$V2.0
SMILES: CCCC[C@H](N)C(=O)N[C@@H](Cc1c[nH]c2ccccc12)C(=O)N[C@@H](Cc1ccccc1)C(=O)N[C@@H](CC(C)C)C(=O)N[C@H](C(=O)N[C@@H](CS)C(=O)N[C@@H](Cc1ccccc1)C(=O)N[C@@H](Cc1c[nH]c2ccccc12)C(=O)NCC(=O)O)[C@@H](C)CC

Kd (β-catenin [1]): > 0.4 µM and ≤ 1 µM
Wnt Reporter EC50 (β-catenin [2]): ≤ 7.5 µM
Binder: H-MWILICFWG-OH [SEQ ID NO: 116]

Kd (β-catenin [1]): > 0.4 µM and ≤ 1 µM
Wnt Reporter EC50 (β-catenin [2]): > 15 µM and ≤ 22.5 µM
Binder: H-MWILI[dT]FWG-OH [SEQ ID NO: 137]

Kd (β-catenin [1]): > 0.4 µM and ≤ 1 µM
Wnt Reporter EC50 (β-catenin [2]): > 7.5 µM and ≤ 15 µM
Binder: H-MWFLIQFYG-OH [SEQ ID NO: 149]

Kd (β-catenin [1]): > 0.4 µM and ≤ 1 µM
Wnt Reporter EC50 (β-catenin [2]): > 7.5 µM and ≤ 15 µM
Binder: H-WWILISFWG-OH [SEQ ID NO: 127]

Kd (β-catenin [1]): > 10 µM and ≤ 30 µM
Wnt Reporter EC50 (β-catenin [2]): ≤ 7.5 µM
B3: SEQ ID NO: 184 (peptide)
peptide: KWILISAWE
HELM: PEPTIDE1{K.W.I.L.I.S.A.W.E}$PEPTIDE1,PEPTIDE1,1:R3-9:R3$$$V2.0
SMILES: CC[C@H](C)[C@@H]1NC(=O)[C@H](CC(C)C)NC(=O)[C@H]([C@@H](C)CC)NC(=O)[C@H](Cc2c[nH]c3ccccc23)NC(=O)[C@@H](N)CCCCNC(=O)CC[C@@H](C(=O)O)NC(=O)[C@H](Cc2c[nH]c3ccccc23)NC(=O)[C@H](C)NC(=O)[C@H](CO)NC1=O

Kd (β-catenin [1]): ≤ 0.4 µM
Wnt Reporter EC50 (β-catenin [2]): ≤ 7.5 µM
Binder: H-HWILISFWG-OH [SEQ ID NO: 126]

Kd (β-catenin [1]): > 0.4 µM and ≤ 1 µM
Wnt Reporter EC50 (β-catenin [2]): > 15 µM and ≤ 22.5 µM
Binder: H-MWFLIKFYG-OH [SEQ ID NO: 151]

Kd (β-catenin [1]): ≤ 0.4 µM
Wnt Reporter EC50 (β-catenin [2]): ≤ 7.5 µM
Binder: H-MWILIC[αMeF]WG-OH [SEQ ID NO: 121]

Kd (β-catenin [1]): > 0.4 µM and ≤ 1 µM
Wnt Reporter EC50 (β-catenin [2]): ≤ 7.5 µM
Binder: H-MWILISSWG-OH [SEQ ID NO: 129]

Kd (β-catenin [1]): ≤ 0.4 µM
Wnt Reporter EC50 (β-catenin [2]): ≤ 7.5 µM
Binder: H-DWFLICFWG-OH [SEQ ID NO: 142]

Kd (β-catenin [1]): ≤ 0.4 µM
Wnt Reporter EC50 (β-catenin [2]): > 7.5 µM and ≤ 15 µM
Binder: H-MW[αMeF]LICFWG-OH [SEQ ID NO: 131]

Kd (β-catenin [1]): > 0.4 µM and ≤ 1 µM
Wnt Reporter EC50 (β-catenin [2]): ≤ 7.5 µM
B4: SEQ ID NO: 199 (peptide)
peptide: KWFLISFWE
HELM: PEPTIDE1{[ac].K.W.F.L.I.S.F.W.E}$PEPTIDE1,PEPTIDE1,2:R3-10:R3$$$V2.0
SMILES: CC[C@H](C)[C@@H]1NC(=O)[C@H](CC(C)C)NC(=O)[C@H](Cc2ccccc2)NC(=O)[C@H](Cc2c[nH]c3ccccc23)NC(=O)[C@@H](NC(C)=O)CCCCNC(=O)CC[C@@H](C(=O)O)NC(=O)[C@H](Cc2c[nH]c3ccccc23)NC(=O)[C@H](Cc2ccccc2)NC(=O)[C@H](CO)NC1=O

Kd (β-catenin [1]): > 0.4 µM and ≤ 1 µM
Wnt Reporter EC50 (β-catenin [2]): ≤ 7.5 µM
Binder: H-MWILISFWG-OH [SEQ ID NO: 43]

Kd (β-catenin [1]): ≤ 0.4 µM
Wnt Reporter EC50 (β-catenin [2]): ≤ 7.5 µM
Binder: Ac-MWILISFWG-OH [SEQ ID NO: 165]

Kd (β-catenin [1]): > 0.4 µM and ≤ 1 µM
Wnt Reporter EC50 (β-catenin [2]): > 22.5 µM and ≤ 30 µM
B5: SEQ ID NO: 182 (peptide)
peptide: KWILISFWE
HELM: PEPTIDE1{K.W.I.L.I.S.F.W.E}$PEPTIDE1,PEPTIDE1,1:R3-9:R3$$$V2.0
SMILES: CC[C@H](C)[C@@H]1NC(=O)[C@H](CC(C)C)NC(=O)[C@H]([C@@H](C)CC)NC(=O)[C@H](Cc2c[nH]c3ccccc23)NC(=O)[C@@H](N)CCCCNC(=O)CC[C@@H](C(=O)O)NC(=O)[C@H](Cc2c[nH]c3ccccc23)NC(=O)[C@H](Cc2ccccc2)NC(=O)[C@H](CO)NC1=O

Kd (β-catenin [1]): ≤ 0.4 µM
Wnt Reporter EC50 (β-catenin [2]): > 22.5 µM and ≤ 30 µM
B6: SEQ ID NO: 185 (peptide)
peptide: KWFLICFWE
HELM: PEPTIDE1{[ac].K.W.F.L.I.C.F.W.E}$PEPTIDE1,PEPTIDE1,2:R3-10:R3$$$V2.0
SMILES: CC[C@H](C)[C@@H]1NC(=O)[C@H](CC(C)C)NC(=O)[C@H](Cc2ccccc2)NC(=O)[C@H](Cc2c[nH]c3ccccc23)NC(=O)[C@@H](NC(C)=O)CCCCNC(=O)CC[C@@H](C(=O)O)NC(=O)[C@H](Cc2c[nH]c3ccccc23)NC(=O)[C@H](Cc2ccccc2)NC(=O)[C@H](CS)NC1=O

Kd (β-catenin [1]): > 0.4 µM and ≤ 1 µM
Wnt Reporter EC50 (β-catenin [2]): > 22.5 µM and ≤ 30 µM
Binder: H-KWILISFWG-OH [SEQ ID NO: 125]

Kd (β-catenin [1]): > 0.4 µM and ≤ 1 µM
Wnt Reporter EC50 (β-catenin [2]): > 7.5 µM and ≤ 15 µM
Binder: H-MWFLIC[2Pal]WG-OH [SEQ ID NO: 148]

Kd (β-catenin [1]): > 0.4 µM and ≤ 1 µM
Wnt Reporter EC50 (β-catenin [2]): ≤ 7.5 µM
Binder: Ac-MWFLICFWG-OH [SEQ ID NO: 198]

Kd (β-catenin [1]): > 10 µM and ≤ 30 µM
Wnt Reporter EC50 (β-catenin [2]): ≤ 7.5 µM
B7: SEQ ID NO: 188 (peptide)
peptide: KWILISAWE
HELM: PEPTIDE1{[ac].K.W.I.L.I.S.A.W.E}$PEPTIDE1,PEPTIDE1,2:R3-10:R3$$$V2.0
SMILES: CC[C@H](C)[C@@H]1NC(=O)[C@H](CC(C)C)NC(=O)[C@H]([C@@H](C)CC)NC(=O)[C@H](Cc2c[nH]c3ccccc23)NC(=O)[C@@H](NC(C)=O)CCCCNC(=O)CC[C@@H](C(=O)O)NC(=O)[C@H](Cc2c[nH]c3ccccc23)NC(=O)[C@H](C)NC(=O)[C@H](CO)NC1=O

Kd (β-catenin [1]): > 0.4 µM and ≤ 1 µM
Wnt Reporter EC50 (β-catenin [2]): > 7.5 µM and ≤ 15 µM
B8: SEQ ID NO: 191 (peptide)
peptide: MWFLICAWD
HELM: PEPTIDE1{[O=C(CCCN[*:1])[*:2]].M.W.F.L.I.C.A.W.D}$PEPTIDE1,PEPTIDE1,1:R1-10:R3$$$V2.0
SMILES: CC[C@H](C)[C@@H]1NC(=O)[C@H](CC(C)C)NC(=O)[C@H](Cc2ccccc2)NC(=O)[C@H](Cc2c[nH]c3ccccc23)NC(=O)[C@H](CCSC)NC(=O)CCCNC(=O)C[C@@H](C(=O)O)NC(=O)[C@H](Cc2c[nH]c3ccccc23)NC(=O)[C@H](C)NC(=O)[C@H](CS)NC1=O

Kd (β-catenin [1]): > 0.4 µM and ≤ 1 µM
Wnt Reporter EC50 (β-catenin [2]): > 7.5 µM and ≤ 15 µM
Binder: MWFLISFWG-NH2 [SEQ ID NO: 108]

Kd (β-catenin [1]): > 0.4 µM and ≤ 1 µM
Wnt Reporter EC50 (β-catenin [2]): ≤ 7.5 µM
Binder: H-MWFLISFW-OH [SEQ ID NO: 112]

Kd (β-catenin [1]): > 0.4 µM and ≤ 1 µM
Wnt Reporter EC50 (β-catenin [2]): > 7.5 µM and ≤ 15 µM
B9: SEQ ID NO: 111 (peptide)
peptide: WFLISFW
HELM: PEPTIDE1{[meW].F.L.I.S.F.W}$$$$V2.0
SMILES: CC[C@H](C)[C@H](NC(=O)[C@H](CC(C)C)NC(=O)[C@H](Cc1ccccc1)NC(=O)[C@H](Cc1c[nH]c2ccccc12)NC)C(=O)N[C@@H](CO)C(=O)N[C@@H](Cc1ccccc1)C(=O)N[C@@H](Cc1c[nH]c2ccccc12)C(=O)O
